What was measured:
Assay in all cases: cell-based or functional assay
[1] = target: HIV-1 Env of pseudovirus Du422.1 (HIV-1)
[2] = target: HIV-1 Env of pseudovirus CNE17 (HIV-1)
[3] = target: HIV-1 Env of pseudovirus ZM197M.PB7 (HIV-1)
[4] = target: HIV-1 Env of pseudovirus 6480.v4.c25 (HIV-1)
[5] = target: HIV-1 Env of pseudovirus CNE21 (HIV-1)
[6] = target: HIV-1 Env of pseudovirus 246F C1G (HIV-1)
[7] = target: HIV-1 Env of pseudovirus 620345.c01 (HIV-1)
[8] = target: HIV-1 Env of pseudovirus BJOX015000.11.5 (HIV-1)
[9] = target: HIV-1 Env of pseudovirus CAAN5342.A2 (HIV-1)
[10] = target: HIV-1 Env of pseudovirus 231966.c02 (HIV-1)
[11] = target: HIV-1 Env of pseudovirus CAP210.2.00.E8 (HIV-1)
[12] = target: HIV-1 Env of pseudovirus HIV-16055-2.3 (HIV-1)
[13] = target: HIV-1 Env of pseudovirus A07412M1.vrc12 (HIV-1)
[14] = target: HIV-1 Env of pseudovirus SC05_8C11_2344 (HIV-1)
[15] = target: HIV-1 Env of pseudovirus Ce703010054_2A2 (HIV-1)
[16] = target: HIV-1 Env of pseudovirus Du156.12 (HIV-1)
[17] = target: HIV-1 Env of pseudovirus HIV-16845-2.22 (HIV-1)
[18] = target: HIV-1 Env of pseudovirus 191084 B7-19 (HIV-1)
[19] = target: HIV-1 Env of pseudovirus PVO.4 (HIV-1)
[20] = target: HIV-1 Env of pseudovirus C4118.c09 (HIV-1)
[21] = target: HIV-1 Env of pseudovirus CNE8 (HIV-1)
[22] = target: HIV-1 Env of pseudovirus 62357_14_D3_4589 (HIV-1)
[23] = target: HIV-1 Env of pseudovirus P1981_C5_3 (HIV-1)
[24] = target: HIV-1 Env of pseudovirus ZM233M.PB6 (HIV-1)
[25] = target: HIV-1 Env of pseudovirus 6540.v4.c1 (HIV-1)
[26] = target: HIV-1 Env of pseudovirus 3415.v1.c1 (HIV-1)
[27] = target: HIV-1 Env of pseudovirus ZM109F.PB4 (HIV-1)
[28] = target: HIV-1 Env of pseudovirus WEAU_d15_410_787 (HIV-1)
[29] = target: HIV-1 Env of pseudovirus CAP45.2.00.G3 (HIV-1)
[30] = target: HIV-1 Env of pseudovirus BJOX025000.01.1 (HIV-1)
[31] = target: HIV-1 Env of pseudovirus Ce2010_F5 (HIV-1)
[32] = target: HIV-1 Env of pseudovirus 3817.v2.c59 (HIV-1)

With BG18 IgG (354BG18) (antibody) the IC50 in TZM-bl assay [1] was 0.009 µg/mL, the IC80 in TZM-bl assay [1] was 0.057 µg/mL and the IC50 in TZM-bl assay [2] was 0.02 µg/mL. The IC80 in TZM-bl assay [2] was 0.109 µg/mL, the IC50 in TZM-bl assay [3] was greater than 30 µg/mL and the IC80 in TZM-bl assay [3] was greater than 30 µg/mL. It also gave an IC50 in TZM-bl assay [4] of 0.016 µg/mL, an IC80 in TZM-bl assay [4] of 0.116 µg/mL and an IC50 in TZM-bl assay [5] of 0.002 µg/mL. The IC80 in TZM-bl assay [5] was 0.007 µg/mL, the IC50 in TZM-bl assay [6] was 0.034 µg/mL and the IC80 in TZM-bl assay [6] was 0.257 µg/mL. It also gave an IC50 in TZM-bl assay [7] greater than 30 µg/mL, an IC80 in TZM-bl assay [7] greater than 30 µg/mL and an IC50 in TZM-bl assay [8] greater than 30 µg/mL. The IC80 in TZM-bl assay [8] was greater than 30 µg/mL, the IC50 in TZM-bl assay [9] was 0.008 µg/mL and the IC80 in TZM-bl assay [9] was 0.04 µg/mL. The IC50 in TZM-bl assay [10] was greater than 30 µg/mL, the IC80 in TZM-bl assay [10] was greater than 30 µg/mL and the IC50 in TZM-bl assay [11] was 3.47 µg/mL. For the same substance, the IC80 in TZM-bl assay [11] was 10.7 µg/mL, the IC50 in TZM-bl assay [12] was greater than 30 µg/mL and the IC80 in TZM-bl assay [12] was greater than 30 µg/mL. The IC50 in TZM-bl assay [13] was 0.081 µg/mL, the IC80 in TZM-bl assay [13] was 1.72 µg/mL and the IC50 in TZM-bl assay [14] was 0.003 µg/mL. The IC80 in TZM-bl assay [14] was 0.016 µg/mL, the IC50 in TZM-bl assay [15] was greater than 30 µg/mL and the IC80 in TZM-bl assay [15] was greater than 30 µg/mL. The IC50 in TZM-bl assay [16] was 0.003 µg/mL, the IC80 in TZM-bl assay [16] was 0.01 µg/mL and the IC50 in TZM-bl assay [17] was 0.019 µg/mL. For the same substance, the IC80 in TZM-bl assay [17] was 0.09 µg/mL, the IC50 in TZM-bl assay [18] was 0.011 µg/mL and the IC80 in TZM-bl assay [18] was 0.043 µg/mL. For the same substance, the IC50 in TZM-bl assay [19] was 0.003 µg/mL, the IC80 in TZM-bl assay [19] was 0.013 µg/mL and the IC50 in TZM-bl assay [20] was greater than 30 µg/mL. For the same substance, the IC80 in TZM-bl assay [20] was greater than 30 µg/mL, the IC50 in TZM-bl assay [21] was greater than 30 µg/mL and the IC80 in TZM-bl assay [21] was greater than 30 µg/mL. It also gave an IC50 in TZM-bl assay [22] of 3.01 µg/mL, an IC80 in TZM-bl assay [22] greater than 30 µg/mL and an IC50 in TZM-bl assay [23] of 0.006 µg/mL. The IC80 in TZM-bl assay [23] was 0.019 µg/mL, the IC50 in TZM-bl assay [24] was 2.87 µg/mL and the IC80 in TZM-bl assay [24] was 29.8 µg/mL. For the same substance, the IC50 in TZM-bl assay [25] was 28.2 µg/mL, the IC80 in TZM-bl assay [25] was greater than 30 µg/mL and the IC50 in TZM-bl assay [26] was 0.023 µg/mL. For the same substance, the IC80 in TZM-bl assay [26] was 0.087 µg/mL, the IC50 in TZM-bl assay [27] was greater than 30 µg/mL and the IC80 in TZM-bl assay [27] was greater than 30 µg/mL. For the same substance, the IC50 in TZM-bl assay [28] was 0.003 µg/mL, the IC80 in TZM-bl assay [28] was 0.012 µg/mL and the IC50 in TZM-bl assay [29] was greater than 30 µg/mL. For the same substance, the IC80 in TZM-bl assay [29] was greater than 30 µg/mL, the IC50 in TZM-bl assay [30] was greater than 30 µg/mL and the IC80 in TZM-bl assay [30] was greater than 30 µg/mL. It also gave an IC50 in TZM-bl assay [31] greater than 30 µg/mL, an IC80 in TZM-bl assay [31] greater than 30 µg/mL and an IC50 in TZM-bl assay [32] of 0.219 µg/mL. For the same substance, the IC80 in TZM-bl assay [32] was 1.06 µg/mL.

From patent US11325966
